Among the data in patent US20240254227A1 (Alector, published 2024) are binding result and Kd values, retold here.

Numbering of substitutions follows the chain as printed.

The chains are these.
B1: anti-CD300LB antibody CD-05 (antibody, V domains shown)
VH: QVQLVQSGAEVKKPGASVKVSCKASGYTFSRYYINWVRQAPGQGLEWMGWINPNSGGTNYAQKFQGRVTMTRDTSTSTVYMELSSLRSEDTAVYYCTTDQLRFGKTGPYYGMDVWGQGTTVTVSS
VL: DIQMTQSPSSLSASVGDRVTITCRASQNIGTYLNWYQQKPGKAPKLLIYAASSLQSGVPSRFSGSGSGTDFTLTISSLQPEDFATYYCQQSYSDTLTFGGGTKVEIK
B2: anti-CD300LB antibody CD-03 (antibody, V domains shown)
VH: EVQLQQSGPELVKPGASVKISCKASGYTFTDYYINWVRQSHGKSLECIGDINPNNGGTNYNQKFKGKATLTVDRSSNTAYMEFRSLTFDDSALYYCAAEGAYWGQGTLVTVSA
VL: not shown
B3: anti-CD300LB antibody CD-02 (antibody, V domains shown)
VH: QVQLQQPGAELVRPGSSVKLSCQASGYTFTNYWMHWVRQRPIQGLEWIGNIDPSDSETHYNQKFKDRATLTVDKSSSTAYMQLSSLTSEDSAVYYCARSGVYDDEGGDYWGQGTTLTVSS
VL: ENVLTQSPAIMSASPGEKVTMTCSASSSVSYIHWYQQKSSTSPKLWIYDTSKLASGVPGRFSGSGSGNSYSLTISSMETEDVATYYCFQGSGYPLTFGAGTKLELK
B4: anti-CD300LB antibody CD-01 (antibody, V domains shown)
VH: RVQLQQSGAELVRPGASVTLSCKASGFTFTDFEMHWVKKTPVHGLEWIGAIDPESGNTAYNQKFRGKATLTADKSSSTAYMELRYLTSEDSAVYYCTPLISGADYWGQGTTLTVSS
VL: DVVMTQSPLSLPVSLGDQASISCRSSQSLVHSDGNTYLYWYLQKPGQSPKLLIYKVSNRFSGVPDRFSGSGSGTDFTFKISRVGAEDLGVYFCSQSTHVPWTFGGGTKLEII
B5: anti-CD300LB antibody CD-07 (antibody, V domains shown)
VH: QVQLVQSGAEVKKPGASVKVSCKASGYTFTNYRMHWVRQAPGQGLEWMGWINPNSGGTIYAQKFQGRVTMTRDTSTSTVYMELSSLRSEDTAVYYCARDLDYWGQGTLVTVSS
VL: B1 VL with R24Q, N28D, G30S, T31N, A50G, D94T, T95P, L96W, G100P
B6: anti-CD300LB antibody CD-06 (antibody, V domains shown)
VH: QVQLVQSGAEVKKPGASVKVSCKASGYTFTTYAVHWVRQAPGQGLEWMGIVNPNSGGTNYAQKFQGRVTMTRDTSTSTVYMELSSLRSEDTAVYYCARDIVPMNNFYNYYYGMDVWGQGTTVTVSS
VL: B1 VL with N28S, G30S, T31S, A51T, S53T, S93R, D94I, T95P, L96Y, G100Q

The target in one test is T1, human CD300A-Fc (human).
T1 construct: hIgG1-Fc fusion; the entry is the whole fusion chain
T1 chain: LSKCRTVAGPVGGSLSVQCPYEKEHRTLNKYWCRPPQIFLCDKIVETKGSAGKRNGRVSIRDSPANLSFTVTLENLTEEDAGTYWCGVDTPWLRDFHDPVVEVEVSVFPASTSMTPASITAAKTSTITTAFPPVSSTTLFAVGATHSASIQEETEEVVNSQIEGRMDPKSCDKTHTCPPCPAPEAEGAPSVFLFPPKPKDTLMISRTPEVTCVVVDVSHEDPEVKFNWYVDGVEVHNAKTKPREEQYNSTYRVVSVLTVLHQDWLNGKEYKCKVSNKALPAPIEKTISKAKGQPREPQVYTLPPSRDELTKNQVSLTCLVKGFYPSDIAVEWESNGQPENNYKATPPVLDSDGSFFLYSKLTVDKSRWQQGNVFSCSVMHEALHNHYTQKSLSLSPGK
Kind of test: SPR (Carterra LSA), antibody immobilised. From the text: (§1) In addition to the screening of antibodies for cross-reactivity by FACS analysis, surface plasmon resonance (SPR) analysis was used to determine the binding of antibodies to recombinant huCD300 and muCD300 family members (orthologs) conjugated to an Fc (human CD300A-Fc SEQ ID NO:144; human CD300LB-Fc SEQ ID NO:145; human CD300C-Fc SEQ ID NO: 146; human CD300D-Fc SEQ ID NO: 147; human CD300E-Fc SEQ ID NO: 148; human CD300F-Fc SEQ ID NO: 149; murine CD300A-Fc SEQ ID NO: 150; murine CD300LB-Fc SEQ ID NO:151; murine CD300C-Fc SEQ ID NO: 152; murine CD300D-Fc SEQ ID NO: 153, and murine CD300E-Fc SEQ ID NO: 154).
(§2) Binding of mouse anti-CD300LB IgG1 antibodies of the present disclosure to human and murine CD300 orthologs were evaluated by surface plasmon resonance (SPR) using a Carterra LSA instrument (Carterra, Salt Lake City, UT). […] A HC200M sensor chip (Carterra) was activated using the single channel flow cell with a 7-minute injection of a 1:1:1 mixture of 100 mM MES pH 5.5, 100 mM sulfo-NHS, 400 mM EDC (all reconstituted in MES pH 5.5; 100 μL of each mixed in vial immediately before running assay). After switching to the multi-channel array flow cell, the antibodies were injected over the activated chip in a 96-spot array for 10 minutes. The remaining unconjugated active groups on the chip were then blocked by injecting 1M Ethanolamine pH 8.5 (Carterra) for 7 minutes using the single channel flow cell. After priming with running buffer (HBS-TE, Carterra) with 0.5 mg/ml BSA (Sigma), the immobilized anti-CD300LB antibodies were tested for their ability to bind human and mouse recombinant CD300LB extracellular domains. Human CD300 family members and mouse CD300A were hIgG1-Fc fusions, while mouse CD300LB, mouse CD300C, mouse CD300D, and mouse CD300E were mouse IgG2a-Fc fusions (R&D Systems). Binding was assessed by injecting each analyte over the entire antibody array using the single channel flow cell. CD300 analytes were diluted to 300 nM or 600 nM in running buffer and injected in series without regeneration. Two or three buffer blanks were run between each mouse or human ortholog, respectively. Data were processed and analyzed using NextGenKIT high-throughput kinetics analysis software (Carterra).
For the molecule B1, the binding result was “no binding (tested: 300 nM or 600 nM)”.
Regarding B2, the binding result is recorded as “no binding (tested: 300 nM or 600 nM)”.
Same read-out and setting: as for B3, the entry is “no binding (tested: 300 nM or 600 nM)”.
On the same count and under the same terms, as for B4, the entry is “no binding (tested: 300 nM or 600 nM)”.

For the next test, the target named is T2, human CD300D-Fc (human).
T2 construct: hIgG1-Fc fusion; the entry is the whole fusion chain
T2 chain: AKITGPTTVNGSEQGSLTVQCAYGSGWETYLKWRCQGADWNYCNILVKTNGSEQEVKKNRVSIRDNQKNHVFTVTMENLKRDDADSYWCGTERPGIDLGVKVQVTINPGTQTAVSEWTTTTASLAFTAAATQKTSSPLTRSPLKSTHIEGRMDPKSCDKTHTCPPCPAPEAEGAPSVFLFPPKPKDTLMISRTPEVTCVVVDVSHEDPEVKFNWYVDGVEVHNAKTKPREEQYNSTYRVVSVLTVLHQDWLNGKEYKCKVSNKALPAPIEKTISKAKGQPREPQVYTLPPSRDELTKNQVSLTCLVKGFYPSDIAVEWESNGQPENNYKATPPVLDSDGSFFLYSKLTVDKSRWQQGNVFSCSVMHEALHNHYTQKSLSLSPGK
Kind of test: SPR (Carterra LSA), antibody immobilised.
Description: as §1, §2
Take B1: the binding result is given as “no binding (tested: 300 nM or 600 nM)”.
On the same count and under the same terms, the value for B2 was “no binding (tested: 300 nM or 600 nM)”.
Turning to B3, the binding result is “no binding (tested: 300 nM or 600 nM)”.
The same measure, in the same setting: the value for B4 was “no binding (tested: 300 nM or 600 nM)”.

For another test, the target named is T3, human CD300F-Fc (human).
T3 construct: hIgG1-Fc fusion; the entry is the whole fusion chain
T3 chain: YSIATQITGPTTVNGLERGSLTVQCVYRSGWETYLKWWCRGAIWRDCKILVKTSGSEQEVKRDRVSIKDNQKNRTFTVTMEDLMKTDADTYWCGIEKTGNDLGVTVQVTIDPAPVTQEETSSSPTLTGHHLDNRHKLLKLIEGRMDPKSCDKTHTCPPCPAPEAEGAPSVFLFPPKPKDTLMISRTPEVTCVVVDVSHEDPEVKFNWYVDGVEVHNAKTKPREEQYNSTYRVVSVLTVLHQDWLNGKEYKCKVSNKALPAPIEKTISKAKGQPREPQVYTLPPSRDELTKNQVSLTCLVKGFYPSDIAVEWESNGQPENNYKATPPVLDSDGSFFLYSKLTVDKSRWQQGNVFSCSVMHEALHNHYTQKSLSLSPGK
Kind of test: SPR (Carterra LSA), antibody immobilised.
Description: as §1, §2
Take B1: the binding result was “no binding (tested: 300 nM or 600 nM)”.
As for B2, the binding result is “no binding (tested: 300 nM or 600 nM)”.
For the molecule B3, the binding result is listed as “no binding (tested: 300 nM or 600 nM)”.
On the same count and under the same terms, the value for B4 was “no binding (tested: 300 nM or 600 nM)”.

For a further test, the target named is T4, recombinant human CD300LB overexpressed on Jurkat cells (human, UniProt A8K4G0 18-201).
T4 construct: also called huCD300LB; huCD300LB-expressing Jurkat cells
T4 sequence: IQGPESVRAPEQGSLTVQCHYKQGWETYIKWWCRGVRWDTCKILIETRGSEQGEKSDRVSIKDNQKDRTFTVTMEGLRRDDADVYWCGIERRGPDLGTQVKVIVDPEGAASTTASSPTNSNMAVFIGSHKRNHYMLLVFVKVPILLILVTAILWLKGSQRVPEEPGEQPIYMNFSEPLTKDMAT
The experiment in a line: flow cytometry on Jurkat cells overexpressing huCD300LB, apparent KD (Drake & Klakamp fit). The method, then: Purified anti-CD300LB antibodies of the present disclosure were evaluated for their binding affinity to either Jurkat cells overexpressing recombinant huCD300LB or BaF/3 cells overexpressing recombinant muCD300LB. Binding of anti-CD300LB antibodies to the cells was determined as follows. Cells were harvested, washed, and labeled with propidium iodide for viability discrimination. After washing the cells with PBS, 1×10⁵ cells were aliquoted per well in 96-well U-bottom plates and incubated with 100 μL of purified anti-CD300LB antibody at various concentrations in FACS buffer (PBS+2% FBS). After this primary incubation, the supernatant was removed via centrifugation, the cells washed twice with 150 μL of ice-cold FACS buffer, and then incubated with the appropriate secondary antibody on ice for 30 minutes. Following the secondary antibody incubation, the cells were again washed twice with ice-cold FACS buffer and resuspended in a final volume of 200 L FACS buffer. Flow cytometry analysis was then performed using the FACSCanto system (BD Biosciences).
To determine affinity, antibodies at increasing concentrations were used to stain Jurkat cells overexpressing huCD300LB and geometric MFI values measured by the flow cytometer were analyzed on Prism (Graphpad) software.
Regarding B5, the Kd was found to be 66 nM.
Consider B6, for which the Kd came out at 329 nM.
The same measure, in the same setting: as for B1, the figure is 15 nM; as for B3, 64 nM.
Same read-out and setting: the value for B4 was 27 nM.
